T1: Gbp2 RRM12 (Saccharomyces cerevisiae, UniProt P25555 122-316)
T1 sequence: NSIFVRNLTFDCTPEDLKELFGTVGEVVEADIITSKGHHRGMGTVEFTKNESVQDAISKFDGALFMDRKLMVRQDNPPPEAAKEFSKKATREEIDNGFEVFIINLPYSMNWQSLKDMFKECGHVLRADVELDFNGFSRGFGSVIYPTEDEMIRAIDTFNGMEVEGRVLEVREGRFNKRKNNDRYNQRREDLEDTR

T2: Gbp2 RRM123 (Saccharomyces cerevisiae, UniProt P25555 122-427)
T2 sequence: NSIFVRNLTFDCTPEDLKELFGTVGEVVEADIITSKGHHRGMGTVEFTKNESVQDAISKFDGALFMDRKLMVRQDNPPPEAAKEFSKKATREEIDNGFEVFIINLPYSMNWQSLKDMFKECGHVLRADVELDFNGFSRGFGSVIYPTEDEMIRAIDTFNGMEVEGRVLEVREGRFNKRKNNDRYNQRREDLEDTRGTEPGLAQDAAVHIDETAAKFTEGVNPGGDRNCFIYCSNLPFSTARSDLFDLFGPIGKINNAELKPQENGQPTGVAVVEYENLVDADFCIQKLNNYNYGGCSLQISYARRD

T3: Gbp2 RRM2 (Saccharomyces cerevisiae, UniProt P25555 219-316)
T3 sequence: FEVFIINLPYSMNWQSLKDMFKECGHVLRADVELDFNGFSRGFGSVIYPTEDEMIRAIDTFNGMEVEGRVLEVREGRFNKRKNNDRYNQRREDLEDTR

T4: Gbp2 RRM3 (Saccharomyces cerevisiae, UniProt P25555 330-427)
T4 sequence: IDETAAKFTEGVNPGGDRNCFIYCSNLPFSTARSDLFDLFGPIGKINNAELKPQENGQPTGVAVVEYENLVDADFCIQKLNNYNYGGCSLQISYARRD

T5: Hrb1 RRM2 (Saccharomyces cerevisiae, UniProt P38922 261-338)
T5 sequence: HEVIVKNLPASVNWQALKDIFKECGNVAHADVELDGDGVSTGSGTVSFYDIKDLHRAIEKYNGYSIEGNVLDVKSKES

B1: Selex RNA UUGGUGUU (ssRNA)
RNA: UUGGUGUU
B2: TG-43 (ssDNA)
DNA: GTGGTGGGTGGGTGTGTGTGGGTGTGGTGGGTGTGTGGGTGTG
B3: d(TTGGTGTT) (ssDNA)
DNA: TTGGTGTT
B4: U12 (ssRNA)
RNA: UUUUUUUUUUUU
B5: A12 (ssRNA)
RNA: AAAAAAAAAAAA

What was measured:
Gbp2 RRM12 = target: T1, Gbp2 RRM12; experiment: fluorescence anisotropy
Gbp2 RRM123 = target: T2, Gbp2 RRM123; experiment: fluorescence anisotropy
Gbp2 RRM2 = target: T3, Gbp2 RRM2; experiment: fluorescence anisotropy
Gbp2 RRM3 [1] = target: T4, Gbp2 RRM3; experiment: fluorescence anisotropy
Hrb1 RRM2 = target: T5, Hrb1 RRM2; experiment: fluorescence EMSA
Gbp2 RRM3 [2] = target: T4, Gbp2 RRM3; experiment: NMR HSQC titration

Binder	Kd (Gbp2 RRM12) [µM]	Kd (Gbp2 RRM123) [µM]	Kd (Gbp2 RRM2) [µM]	binding result (Gbp2 RRM3 [1])	binding result (Hrb1 RRM2)	binding result (Gbp2 RRM3 [2])
B1	5.5 ± 0.7	3.3 ± 0.8	54 ± 4	no binding		
B2		~0.059			no binding	
B3	24 ± 2	17 ± 2	310 ± 90	no binding		
B4						no binding
B5						no binding
